Target: T1, N-methyl D-aspartate receptor subunit GluN2B (rat (endogenous in hippocampal slices), UniProt Q00960 27-1482)
T1 construct: NMDA receptor subunit GluN2B, endogenous in hippocampal slices of male Sprague-Dawley rats aged 14-21 days; Immunoprecipitated from the lysate with a rabbit polyclonal antibody against the GluN2B C-terminus; other NMDA receptor subunits may be present in the precipitate but were not examined; source: endogenous, lysate of rat hippocampal slices (RIPA buffer)
Assay: co-IP; GluN2B immunoprecipitated with rabbit polyclonal anti-GluN2B C-terminal antibody on protein A beads from 500 ug RIPA lysate of rat hippocampal slices (sagittal control or 20 uM scopolamine for 2 hrs; untreated coronal or sagittal), overnight at 4°C, four washes in RIPA; Western blot for RasGRF1, RasGRF1 normalized to GluN2B
Settings: partners not purified

T1 sequence (Q00960 27-1482): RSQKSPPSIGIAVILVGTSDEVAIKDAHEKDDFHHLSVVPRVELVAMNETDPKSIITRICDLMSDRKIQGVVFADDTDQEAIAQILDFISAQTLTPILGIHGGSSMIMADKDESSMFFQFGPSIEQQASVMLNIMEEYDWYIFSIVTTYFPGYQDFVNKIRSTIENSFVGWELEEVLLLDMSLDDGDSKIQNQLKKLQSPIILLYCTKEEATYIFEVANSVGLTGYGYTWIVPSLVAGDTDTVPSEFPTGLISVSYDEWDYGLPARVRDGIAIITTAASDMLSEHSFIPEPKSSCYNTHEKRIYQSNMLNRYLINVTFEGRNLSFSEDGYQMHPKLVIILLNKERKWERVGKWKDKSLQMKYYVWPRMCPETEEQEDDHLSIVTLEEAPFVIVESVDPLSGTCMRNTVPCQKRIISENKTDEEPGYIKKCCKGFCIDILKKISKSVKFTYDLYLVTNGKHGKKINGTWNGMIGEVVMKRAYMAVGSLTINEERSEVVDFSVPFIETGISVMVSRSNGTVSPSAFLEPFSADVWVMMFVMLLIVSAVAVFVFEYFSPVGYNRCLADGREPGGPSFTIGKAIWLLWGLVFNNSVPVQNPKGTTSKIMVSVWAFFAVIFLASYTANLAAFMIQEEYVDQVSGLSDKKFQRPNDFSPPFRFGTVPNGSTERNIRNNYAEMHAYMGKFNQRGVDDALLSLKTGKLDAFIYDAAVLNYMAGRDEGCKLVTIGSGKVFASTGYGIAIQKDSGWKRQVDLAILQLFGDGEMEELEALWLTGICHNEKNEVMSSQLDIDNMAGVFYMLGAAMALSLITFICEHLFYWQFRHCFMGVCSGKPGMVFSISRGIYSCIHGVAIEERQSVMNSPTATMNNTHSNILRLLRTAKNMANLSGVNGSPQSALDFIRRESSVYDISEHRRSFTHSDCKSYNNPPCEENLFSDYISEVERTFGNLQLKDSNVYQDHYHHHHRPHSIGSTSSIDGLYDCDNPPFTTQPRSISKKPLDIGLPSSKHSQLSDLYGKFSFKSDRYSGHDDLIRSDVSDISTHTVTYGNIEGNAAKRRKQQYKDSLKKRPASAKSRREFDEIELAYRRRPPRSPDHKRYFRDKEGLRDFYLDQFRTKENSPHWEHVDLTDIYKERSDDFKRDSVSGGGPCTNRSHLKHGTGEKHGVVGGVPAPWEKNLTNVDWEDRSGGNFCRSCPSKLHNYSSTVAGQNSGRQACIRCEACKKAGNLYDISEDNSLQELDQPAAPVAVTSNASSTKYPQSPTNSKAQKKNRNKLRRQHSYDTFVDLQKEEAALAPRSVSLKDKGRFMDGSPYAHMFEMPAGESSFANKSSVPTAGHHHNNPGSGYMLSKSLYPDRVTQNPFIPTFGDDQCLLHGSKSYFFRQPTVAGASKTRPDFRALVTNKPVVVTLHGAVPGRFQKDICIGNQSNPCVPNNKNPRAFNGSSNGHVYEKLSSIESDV

B1: Ras Guanine nucleotide Release Factor 1 (natural protein, rat (endogenous in hippocampal slices), UniProt P28818 1-1244, looked up)
chain: MQKAIRLNDGHVVSLGLLAQRDGTRKGYLSKRSSDNPKWQTKWFALLQNLLFYFESDSSSRPSGLYLLEGSICKRMPSPKRGTSSKESDKQHHYFTVNFSNDSQKSLELRTDDSKDCDEWVAAIARASYKILATEHEALMQKYLHLLQVVETEKTVAKQLRQQLEDGEVEIERLKAEIANLIKDNERIQSNQLVAPEDEDSDIKKIKKVQSFLRGWLCRRKWKNIIQDYIRSPHADSMRKRNQVVFSMLEAEAEYVQQLHILVNNFLRPLRMAASSKKPPITHDDVSSIFLNSETIMFLHQIFYQGLKARIASWPTLVLADLFDILLPMLNIYQEFVRNHQYSLQILAHCKQNRDFDKLLKQYEAKPDCEERTLETFLTYPMFQIPRYILTLHELLAHTPHEHVERNSLDYAKSKLEELSRVMHDEVSETENIRKNLAIERMITEGCEILLDTSQTFVRQGSLIQVPMSEKGKINKGRLGSLSLKKEGERQCFLFSKHLIICTRGSGSKLHLTKNGVISLIDCTLLDDPENMDDDGKGQEVDHLDFKIWVEPKDSPPFTVILVASSRQEKAAWTSDIIQCVDNIRCNGLMMNAFEENSKVTVPQMIKSDASLYCDDVDIRFSKTMNSCKVLQIRYASVERLLERLTDLRFLSIDFLNTFLHSYRVFTDAVVVLDKLISIYKKPITAIPARSLELLFSSSHNTKLLYGDAPKSPRASRKFSSPPPLAIGTSSPVRRRKLSLNIPIITGGKALELASLGCPSDGYTNIHSPISPFGKTTLDTSKLCVASSLTRTPEEIDMTTLEESSGFRKPTSDILKEESDDDQSDVDDTEVSPPTPKSFRNRITQEFPLFNYNSGIMMTCRDLMDSNRSPLSATSAFAIATAGANESPANKEIYRRMSLANTGYSSDQRNIDKEFVIRRAATNRVLNVLRHWVTKHSQDFETDDLLKYKVICFLEEVMHDPDLLPQERKAAANIMRTLTQEEITENHSMLDELLLMTEGVKTEPFENHSAMEIAEQLTLLDHLVFKSIPYEEFFGQGWMKADKNERTPYIMKTTRHFNHISNLIASEILRNEEVSARASTIEKWVAVADICRCLHNYNAVLEITSSINRSAIFRLKKTWLKVSKQTKSLFDKLQKLVSSDGRFKNLRETLRNCDPPCVPYLGMYLTDLAFLEEGTPNYTEDGLVNFSKMRMISHIIREIRQFQQTTYKIEPQPKVTQYLVDETFVLDDESLYEASLRIEPKLPT
notes: RasGRF1, Ras-specific guanine nucleotide exchange factor, endogenous in hippocampal slices of male Sprague-Dawley rats aged 14-21 days; Detected in the GluN2B immunoprecipitate by Western blot with a rabbit polyclonal anti-RasGRF1 antibody; also called RasGRF1; source: endogenous, lysate of rat hippocampal slices (RIPA buffer)
Question: For B1, which “ratio of normalized RasGRF1 in GluN2B immunoprecipitate, coronal/sagittal” value is on record?
Answer: The value was 1.33 ± 0.105.

Question: What about the “ratio of normalized RasGRF1 in GluN2B immunoprecipitate, scopolamine/control” value of the same binder?
Answer: Its value is 2.04 ± 0.451.
